# Laboratory results from the supplement of paper PMC12764529.
# ± gives the half width of the 95% confidence interval.
# Experiments:
# [1] = folding stability dG unfold from trypsin proteolysis; higher = more stable
# Outline: (§1)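 K50 was inferred by Bayesian fitting of sequencing counts obtained after protease digestion of designed mini-proteins. Unfolding free energy was derived by comparison with a sequence-predicted unfolded-state K50 and a shared folded-state K50, for each protease or both combined. The mini-proteins were under 80 residues, had no cysteine, were carried in a PA-tagged cDNA display construct, and were kept only if AlphaFold2 dimer inter-PAE exceeded 15.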
# [2] = folding stability dG unfold from chymotrypsin proteolysis; higher = more stable
# Outline: as §1
# [3] = folding stability dG unfold (combined trypsin and chymotrypsin); higher = more stable
# Outline: as §1
Sequence,folding stability dG unfold [1],folding stability dG unfold [2],folding stability dG unfold [3]
SAGGSAGGSAGGGPEDRVVPLFFEFDLPEDVVLEVPSDADVFVFRLPDRTLMVLLVDERESAGGSAGGSAGG [r7_584_TrMRF],1.82 ± 0.051 kcal/mol,2.88 ± 0.023 kcal/mol,2.51 ± 0.057 kcal/mol
SMKIPVKTNDPEALKELLNKIKEILEKAKEKGYEIFPIPIILDNGKEIIFPIDPNDKIEEVIKKIEEALKSA [r9_127_TrMRF],2.7 ± 0.15 kcal/mol,1.38 ± 0.097 kcal/mol,2.02 ± 0.23 kcal/mol
SAGGMPPVKVPVKVTISMKDPKTGKTFTVPVEKVATSEEDLEEIKKEVEELAKELKEKGYKEIEIKIESAGG [r13_360_JUSTAS],2.14 ± 0.061 kcal/mol,3.14 ± 0.08 kcal/mol,2.87 ± 0.1 kcal/mol
SAGGGSISPAIVAALRAAGASLEEIVAYLNEQGYPIASVLGEEEHHHHHHITLLLPETGETVTVELHSAGGS [r8_179_JUSTAS],2.43 ± 0.068 kcal/mol,3.029 ± 0.028 kcal/mol,2.79 ± 0.096 kcal/mol
SAGGSAGGSAGASPTAPAVTVEVKTEEVPNNDLLKTTTTTYFPGTGTTVTTETILPPGLGSAGGSAGGSAGG [r11_746_JUSTAS],0.187 ± 0.053 kcal/mol,-0.269 ± 0.086 kcal/mol,-0.00225 ± 0.12 kcal/mol
SAGGKEKYKIKIYNKKTGKEYEFEIPLDEIVKYDKKNKKIYIKLKNGKKLEFKSLEDIVKIEIEKLPSAGGS [r8_111_TrROS_Hall],2.34 ± 0.088 kcal/mol,3.48 ± 0.056 kcal/mol,3.14 ± 0.14 kcal/mol
SASLANGGLRVDVELEFDPETHEIRVKRLTLYRGDEPVATADATIAVPPAAPPPPPVVVLDPDVPFDNESAG [r14_571_TrMRF],0.687 ± 0.075 kcal/mol,1.71 ± 0.084 kcal/mol,1.28 ± 0.12 kcal/mol
SAGKEKEIAEAIEEFLKEKGYDVKVKLIKVNPNNPNLSKVVLEVEVLGYLPDKKPLGKKRFKLVILGGSAGG [r19_418_TrMRF],2.64 ± 0.066 kcal/mol,2.72 ± 0.046 kcal/mol,2.52 ± 0.17 kcal/mol
SAGGMFKGPDGNWKTYKTTKPGLTKSDIGPFVEELVEKFLKDHGLNPENVSAKAEYNPSTGTVNVYVGSAGG [r13_913_TrMRF],0.041 ± 0.039 kcal/mol,0.783 ± 0.083 kcal/mol,0.576 ± 0.08 kcal/mol
SAGGSFVVIEPTADGVRIVLEDDGALREVPVSPEVAAALAANPDLEGVVRSLLPEGHPIERIAAVPGSAGGS [r16_567_TrMRF],-0.755 ± 0.24 kcal/mol,-0.476 ± 0.17 kcal/mol,-0.451 ± 0.2 kcal/mol
SAGGSAGGSAGKKEKVILLPVDAEPDETPEELAKKLKELNPDVEVLGFDPETGYVLVKVPSAGGSAGGSAGG [r11_465_TrMRF],0.107 ± 0.053 kcal/mol,-0.0143 ± 0.28 kcal/mol,0.149 ± 0.18 kcal/mol
SAGGSAGGSAGGEDLKINIKISEITFSPDGWITMSMRGGNGRWFQHTIKVKIKLPPGDPSAGGSAGGSAGGS [r10_281_TrROS],2.77 ± 0.14 kcal/mol,3.15 ± 0.038 kcal/mol,3 ± 0.12 kcal/mol
SAGMKIEVKRLPGPGDYLFTLVDPELAARLKAVYPGLEEVIFPVGGPDSVPEEEIKERAEKELKELLLSAGG [r19_298_JUSTAS],-0.0847 ± 0.17 kcal/mol,-0.66 ± 0.64 kcal/mol,-0.268 ± 0.31 kcal/mol
SAGGSKPKTVEITLEVDGKKVKITVTEKDGKLTVTITFPDGTKLTIELPENMSIEEALKKALEALKSAGGSA [r2_92_TrROS_Hall],3.28 ± 0.13 kcal/mol,2.4 ± 0.062 kcal/mol,2.87 ± 0.096 kcal/mol
SAGGSAKIEIERIEPRPVLVPRPDGSLVPVPEVEVELRIEGDPEKMEEEERKKIEALAEEIAKELGSAGGSA [r2_40_TrMRF],-0.508 ± 0.16 kcal/mol,0.736 ± 0.056 kcal/mol,0.428 ± 0.16 kcal/mol
SAGGSAGGSAGMVINVTVTLKNSTGTITITLPVPPDLLDEVLKELKEKPDYEVVSVDTSPSAGGSAGGSAGG [r11_692_JUSTAS],2.47 ± 0.11 kcal/mol,2.79 ± 0.16 kcal/mol,2.67 ± 0.14 kcal/mol
SAGGSAGGSAKKVIKAKILEVKVLPDGTGLVKLEGEDGLEVVIPLSILENISPDAIVTIEASAGGSAGGSAG [r3_315_TrMRF],0.916 ± 0.055 kcal/mol,1.79 ± 0.039 kcal/mol,1.45 ± 0.066 kcal/mol
SAKKKYIAKVLIEKGDKIIEIEIPGDATVKNPDGKEYTFKVESPEKLKEAIKKLFPEKYPAKILEVKEESAG [r14_41_TrMRF],1.18 ± 0.058 kcal/mol,1.73 ± 0.087 kcal/mol,1.54 ± 0.18 kcal/mol
SAGGMEKIEIEVENEDGEKVKIEIYFDEETGFIVVKIEGENPELIDALKKKLGLEIVEKREDGYLVFKSAGG [r13_937_TrROS_Hall],3.01 ± 0.24 kcal/mol,3.72 ± 0.13 kcal/mol,3.48 ± 0.23 kcal/mol
SAGGKKKKVKKIKVKVKIKLKNGEEVTITEAYVLPDGTVIIKVEVTKPDGSKETKTFTIPLKDIEIESAGGS [r16_498_TrROS_Hall],2.24 ± 0.075 kcal/mol,3.7 ± 0.07 kcal/mol,3.34 ± 0.11 kcal/mol
SAGGSAGGSAGGKKTLVIEFDLEPGGLTAEEIEELLRPYTGKEVRLETHPDGKPVAVVEGSAGGSAGGSAGG [r7_330_TrMRF],-0.488 ± 0.1 kcal/mol,-0.616 ± 0.44 kcal/mol,-0.393 ± 0.16 kcal/mol

Sequence,folding stability dG unfold [1],folding stability dG unfold [2],folding stability dG unfold [3]
SAGGMITATFTIDLGAGPVTFTFDITDIETALEKIKEYLKSQGIDAKLVSVSVDPANGTVPMKLSVPPSAGG [r13_567_JUSTAS],1.58 ± 0.043 kcal/mol,1.46 ± 0.14 kcal/mol,1.56 ± 0.12 kcal/mol
SAGGSAGGSAGMKTTTLEVSTDPSGYTTTKTKIEIINENTPSISTSTVVTAVTPPAPPIASAGGSAGGSAGG [r11_830_JUSTAS],0.133 ± 0.017 kcal/mol,0.122 ± 0.11 kcal/mol,0.195 ± 0.057 kcal/mol
SAEVRPDEVLRIEVRLRVGDVEFTAEAEIPAGLSEEEIREAVERIREEAERLAERLRRLPPLRPPEELLSAG [r14_70_TrMRF],1.63 ± 0.086 kcal/mol,2.96 ± 0.14 kcal/mol,2.64 ± 0.43 kcal/mol
SAGGSAGGSKEVKTIKVEITITDKNGKKITVKAEIVYDKKTKKYYIKIRNKKTNKTYIIELKLSAGGSAGGS [r20_71_TrROS_Hall],3.29 ± 0.088 kcal/mol,4.753 ± 0.047 kcal/mol,4.47 ± 0.08 kcal/mol
SAGGSADENKKPMYFIMVKIEIKFGGKDHKIEIMIPLDNVEKLAKNIAEELGMEIKDVTVSLYPIDSAGGSA [r15_535_TrROS],2.79 ± 0.13 kcal/mol,4.18 ± 0.12 kcal/mol,3.77 ± 0.15 kcal/mol
SAGGFWLKNPNGHYIQVNVEVEWEPRRDPDNGKPTWEPKIEINVEVYDPNGEKRPIPEDQAKDLLKKLSAGG [r13_809_TrROS],0.604 ± 0.073 kcal/mol,1.64 ± 0.082 kcal/mol,1.31 ± 0.11 kcal/mol
SAGGSAGGSAGKWKTITILIPNMPVEEIADRIMDKFGPGIRITEITPNKPGWFWITIIVRSAGGSAGGSAGG [r11_580_TrROS],3.29 ± 0.075 kcal/mol,3.823 ± 0.037 kcal/mol,3.62 ± 0.069 kcal/mol
SAGPWWMITIRLPGNKTITIMFPGVKVEVDPKNNTIRIRNPGLGHSIEFKFDPPGKIKDVDIEPIPPNASAG [r5_342_TrROS],3.39 ± 0.21 kcal/mol,4.49 ± 0.13 kcal/mol,3.95 ± 0.18 kcal/mol
SAGGSAGGMVIPFILPGSEFEEEEAIERLLELIETARELNPDTPIIANPLILEVPPPPTETELGSAGGSAGG [r6_728_TrMRF],1.36 ± 0.099 kcal/mol,0.538 ± 0.13 kcal/mol,1.22 ± 0.28 kcal/mol
SAGGSAGGSAGGKRYRVTELEVVEVDGEKRLLVRFEDGRTQAFPAGAKISPDGAEIELLPSAGGSAGGSAGG [r7_931_TrROS_Hall],0.469 ± 0.042 kcal/mol,1.44 ± 0.033 kcal/mol,1.14 ± 0.04 kcal/mol
SAGGSMVIPTKVSSLEEAKQVAEEILKKLGRPLTLDDVSFDPEKFKAELKPDTPVVVKVKDPSGVTLGASAG [r5_503_JUSTAS],0.457 ± 0.032 kcal/mol,0.458 ± 0.15 kcal/mol,0.409 ± 0.16 kcal/mol
SAGGSAGGSAGGSMYIKIPGEPGDLREVVIEGKKVKVTPDANNPDKVTYTLPDGTKIALSAGGSAGGSAGGS [r4_488_JUSTAS],0.117 ± 0.064 kcal/mol,0.957 ± 0.14 kcal/mol,0.638 ± 0.073 kcal/mol
SAGGSMAEPGPMNMTLSFDGIEKEFSVEITVRKRPDGTEVLELRLPDGVPLTLPAAEAAKIVDMSGSAGGSA [r2_297_JUSTAS],0.549 ± 0.023 kcal/mol,0.879 ± 0.036 kcal/mol,0.764 ± 0.051 kcal/mol
SAGGSAGGSAGGGPSSMVTVETKEELLTLPNGEKLIKTTTTTKTPTATTTTTTVLPAELLSAGGSAGGSAGG [r7_682_JUSTAS],0.0664 ± 0.063 kcal/mol,0.561 ± 0.068 kcal/mol,0.515 ± 0.2 kcal/mol
SAGGSAGGSAGGKLKPGQKVLVIELKVTKVKTKKDGKKEFEFEITRIEIVEVPEGAKILSAGGSAGGSAGGS [r10_826_TrROS_Hall],1.78 ± 0.051 kcal/mol,1.01 ± 0.051 kcal/mol,1.46 ± 0.14 kcal/mol
SAGGSAGGKKKVIEITVKITLFNENGEEVATFEAKITIIEDKETKEYYAVITFKDGSTLVIKLPSAGGSAGG [r6_923_TrROS_Hall],3.69 ± 0.2 kcal/mol,5.12 ± 0.2 kcal/mol,4.87 ± 0.47 kcal/mol
SAGGSAGGSAGGKRTLLIRVPPGASVEQVLEELKRLLPPGAKITVELDPETRTLRVTIDSAGGSAGGSAGGS [r10_163_TrROS_Hall],3.28 ± 0.075 kcal/mol,4.12 ± 0.057 kcal/mol,3.89 ± 0.12 kcal/mol
SAGGSAGGSAGGSEVEVLDSRPLPDGHHLVLVRFPDGSYALYRIYPDGSVEVEVFSDDGSAGGSAGGSAGGS [r4_483_TrMRF],2.47 ± 0.066 kcal/mol,4.205 ± 0.029 kcal/mol,3.81 ± 0.084 kcal/mol
SMSPEARALARELAERLRELFPGAEIEIRVEVEVNEDGEVTIRVEIRVRPAPPPEVRVVRDEDGRERRLRSA [r9_82_TrROS_Hall],1.09 ± 0.1 kcal/mol,2.04 ± 0.04 kcal/mol,1.8 ± 0.074 kcal/mol
SAGGSAGGSAGTETKVLFIDENFESVEEAFQALRDLLPDNYKIEPLGVFPAKNKVVVLVTNPSAGGSAGGSA [r18_429_TrMRF],0.646 ± 0.056 kcal/mol,0.189 ± 0.27 kcal/mol,0.589 ± 0.15 kcal/mol
SAGPWRIKEVDPDSYTIEIRFGDRPIEIKIPPGKEPSIMIEMDPDGHFQLTIRVPDRTRTFTIPFDDIRSAG [r5_500_TrROS],0.86 ± 0.13 kcal/mol,0.591 ± 0.25 kcal/mol,0.674 ± 0.19 kcal/mol
